Assay results reported in US20170015742A1 (published 2017).
Numbering of substitutions follows the chain as printed. One block for each binder: values may come before it.

What was measured:
[1] = target: T1, Human VEGF-A 165 (human, UniProt P15692 207-395); test: Biacore SPR (Example 1.1)
T1 construct: also called hVEGF165; huVEGF-A165
Method: Unreacted moieties on the biosensor surface were blocked with ethanolamine. For kinetic analysis, rate equations derived from the 1:1 Langmuir binding model were fitted simultaneously to multiple antigen injections (using global fit analysis) with the use of Scrubber 2 (BioLogic Software), Biacore Biaevaluation 4.0.1 software or Biacore T100 Evaluation software. Purified antibodies or DVD-Ig molecules were diluted in running buffer for capture across goat anti-human Fc reaction surfaces. Antibodies or DVD-Ig molecules to be captured as a ligand (1 μg/ml) were injected over reaction matrices at a flow rate of 10 μl/minute. During the assay, all measurements were referenced against the capture surface alone (i.e., with no captured antibody or DVD-Ig molecule). […] The equilibrium dissociation constant KD (M) of the reaction between antibodies and the target antigen was then calculated from the kinetic rate constants by the following formula: KD=Koff/Kₒₙ. Binding was recorded as a function of time and kinetic rate constants were calculated. In this assay, on-rates as fast as 10⁶M⁻¹s⁻¹ and off-rates as slow as 10⁻⁶ s⁻¹ could be measured. […]

[2] = target: recombinant human PDGF-BB (human, UniProt P01127 82-190); test: cell-based or functional assay
recombinant human PDGF-BB, sequence (P01127 82-190 limits assumed): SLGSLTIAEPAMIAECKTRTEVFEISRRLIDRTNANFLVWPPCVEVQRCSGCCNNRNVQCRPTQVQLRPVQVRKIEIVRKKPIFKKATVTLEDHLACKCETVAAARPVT

T1 sequence (P15692 other isoform, or with tags, fused parts or gaps limits assumed): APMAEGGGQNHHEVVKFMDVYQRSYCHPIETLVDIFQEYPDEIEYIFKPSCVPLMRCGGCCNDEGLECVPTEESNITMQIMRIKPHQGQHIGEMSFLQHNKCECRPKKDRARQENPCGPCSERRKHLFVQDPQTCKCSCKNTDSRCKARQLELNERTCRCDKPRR

hPDGF-BB IC50 (nM), hPDGF-BB-induced NIH-3T3 cell proliferation [2]: 0.571 nM
B4: hBFU-3E2.4 (antibody, V domains shown)
VH: EVQLVQSGAEVKKPGSSVKVSCKASGYTFTESYMYWVRQAPGQGLELIGRIDPEDGSTDYVEKFKNRVTLTADKSTSTAYMELSSLRSEDTAVYYCARFGARSYFYPMDAWGQGTTVTVSS
VL: ATQLTQSPSSLSASVGDRVTISCRASESVSTLMHWYQQKPGKQPRLLIYGASNLESGVPSRFSGSGSGTDFTLTISSLQPEDFATYFCQQSWNDPWTFGGGTKVEIK

hPDGF-BB IC50 (nM), hPDGF-BB-induced NIH-3T3 cell proliferation [2]: < 10 nM
B8: hBDI-5H1.3 (antibody, V domains shown)
VH: EVTLRESGPALVKPTQTLTLTCTFSGFSLSTFGMGVGWIRQPPGKALEWLANIWWDDDKYYNPSLKNRLTISKDTSKNQVVLTMTNMDPVDTATYYCARISTGISSYYVMDAWGQGTTVTVSS
VL: EIVLTQSPGTLSLSPGERATLSCERSSGDIGDTYVSWYQQKPGQAPRLLIYGNDQRPSGIPDRFSGSGSGTDFTLTISRLEPEDFAVYYCQSYDSDIDIVFGGGTKVEIK

hPDGF-BB IC50 (nM), hPDGF-BB-induced NIH-3T3 cell proliferation [2]: < 10 nM
B9: hBDI-5H1.13 (antibody, V domains shown)
VH: B8 VH with R5K, V80A, M84I
VL: DFQLTQSPSSLSASVGDRVTITCERSSGDIGDTYVSWYQQKPGKAPKNVIYGNDQRPSGVPSRFSGSGSGNSATLTISSLQPEDFATYFCQSYDSDIDIVFGQGTKVEIK

hPDGF-BB IC50 (nM), hPDGF-BB-induced NIH-3T3 cell proliferation [2]: < 10 nM
B10: hBDI-5H1.7 (antibody, V domains shown)
VH: B8 VH with R5K, V80A, M84I
VL: B8 VL

hPDGF-BB IC50 (nM), hPDGF-BB-induced NIH-3T3 cell proliferation [2]: < 10 nM
B12: hBDI-5H1.4 (antibody, V domains shown)
VH: B8 VH
VL: B8 VL with I2F, L49V

hPDGF-BB IC50 (nM), hPDGF-BB-induced NIH-3T3 cell proliferation [2]: < 10 nM
B14: hBDI-5H1.16 (antibody, V domains shown)
VH: B8 VH with R5K, A46G, K77N, N78S, V80A, M84I
VL: B8 VL with I2F, A45P, L48N, L49V, I60V, Y89F

hPDGF-BB IC50 (nM), hPDGF-BB-induced NIH-3T3 cell proliferation [2]: < 10 nM
B15: hBDI-5H1.17 (antibody, V domains shown)
VH: B8 VH with R5K, A46G, K77N, N78S, V80A, M84I
VL: B8 VL with I2F, T33S, L49V, G52A, N53D, S95I, D96N

hPDGF-BB IC50 (nM), hPDGF-BB-induced NIH-3T3 cell proliferation [2]: < 10 nM
B16: hBDI-5H1.9 (antibody, V domains shown)
VH: B8 VH with V80A, M84I
VL: DFVLTQSPDSLAVSLGERATINCERSSGDIGDTYVSWYQQKPGQPPKNVIYGNDQRPSGVPDRFSGSGSGNSATLTISSLQAEDVAVYFCQSYDSDIDIVFGGGTKVEIK

Kd [1]: ≤ 0.00018 nM
kon [1]: 5.5e+06 M⁻¹ s⁻¹
B21: BEW-9C2-D6 (antibody, IgG2b, V domains shown)
VH: QIQLVQSGPELKKPGESVKVSCKASGYTFTNYGIHWVKQAPGQGLQYVGWINTETGRPTYADDFKGRFVFFLETSASTAYLQINNLKNEDMATYFCARPLYYGYAHYFDYWGQGVMVTVSS
VL: DIQMTQSPASLSASLEEIVTITCQASQDIGNWLAWYQQKPGKSPQLLIYGATSLADGVPSRFSGSRSGTQYSLKISRLQVEDIGIYYCQQASSVTYTFGAGTKLELK

Further lines, the binder ahead of its results:

B1: BEW-9D2-E8 (antibody, IgG2a, V domains shown)
VH: QIQLVQSGPELKKPGESVKISCKASGYTFTNYGMYWVKLAPGQGLQYLGWINTETGKPTYADDFKGRFVFFLETSASTAYLQINNLRNEDMATYFCARPSDYYDGFWFAYWGQGTLVTVSS
VL: DTVLTQSPALTVSPGERVSISCRASEWVNSYMHWYQQNPGQQPKLLIYKASNLASGVPARFSGSGSGTDFTLTLDPVEADDTATYFCQQSWNDPLTFGSGTKLEIK
Kd [1]: 0.014 nM
kon [1]: 7e+06 M⁻¹ s⁻¹

B2: BEW-9E3-B9 (antibody, IgG2a, V domains shown)
VH: B1 VH with L39Q, L48M, Y80F, R87K, A109P, T115A
VL: B1 VL with V3I, T11A, V18I, W27G, L74I
Kd [1]: 0.014 nM
kon [1]: 6.7e+06 M⁻¹ s⁻¹

B3: hBFU-3E2.1 (antibody, V domains shown)
VH: B4 VH with R38K, R67K, V68A, Y95F
VL: ETVLTQSPATLSLSPGERATLSCRASESVSTLMHWYQQKPGQQPRLLIYGASNLESGVPARFSGSGSGTDFTLTISSLEPEDFAVYFCQQSWNDPWTFGGGTKVEIK
hPDGF-BB IC50 (nM), hPDGF-BB-induced NIH-3T3 cell proliferation [2]: 0.183 nM

B5: hBFU-3E2.2 (antibody, V domains shown)
VH: B4 VH
VL: B3 VL
hPDGF-BB IC50 (nM), hPDGF-BB-induced NIH-3T3 cell proliferation [2]: 0.659 nM

B6: hBFU-3E2.3 (antibody, V domains shown)
VH: B4 VH with R38K, R67K, V68A, Y95F
VL: B4 VL
hPDGF-BB IC50 (nM), hPDGF-BB-induced NIH-3T3 cell proliferation [2]: 0.335 nM

B7: hBDI-5H1.2 (antibody, V domains shown)
VH: B8 VH
VL: NFMLTQPHSVSESPGKTVTISCERSSGDIGDTYVSWYQQRPGSPPTNVIYGNDQRPSGVPDRFSGSIDSSSNSASLTISGLKTEDEADYFCQSYDSDIDIVFGGGTKLTVL
hPDGF-BB IC50 (nM), hPDGF-BB-induced NIH-3T3 cell proliferation [2]: < 10 nM

B11: hBDI-5H1.8 (antibody, V domains shown)
VH: B8 VH with R5K, V80A, M84I
VL: B8 VL with I2F, L49V
hPDGF-BB IC50 (nM), hPDGF-BB-induced NIH-3T3 cell proliferation [2]: < 10 nM

B13: hBDI-5H1.10 (antibody, V domains shown)
VH: B8 VH with V80A, M84I
VL: B9 VL
hPDGF-BB IC50 (nM), hPDGF-BB-induced NIH-3T3 cell proliferation [2]: < 10 nM

B17: hBDI-5H1.6 (antibody, V domains shown)
VH: B8 VH with R5K, V80A, M84I
VL: B7 VL
hPDGF-BB IC50 (nM), hPDGF-BB-induced NIH-3T3 cell proliferation [2]: < 10 nM

B18: hBDI-5H1.5 (antibody, V domains shown)
VH: B8 VH with R5K, V80A, M84I
VL: B7 VL with P44S, N47T, F90Y
hPDGF-BB IC50 (nM), hPDGF-BB-induced NIH-3T3 cell proliferation [2]: < 10 nM

B19: hBDI-5H1.11 (antibody, V domains shown)
VH: EVQLVESGGGLVQPGGSLRLSCAFSGFSLSTFGMGVGWIRQAPGKGLEWLANIWWDDDKYYNPSLKNRLTISKDTSKNQAYLQINSLRAEDTAVYYCARISTGISSYYVMDAWGQGTLVTVSS
VL: B16 VL
hPDGF-BB IC50 (nM), hPDGF-BB-induced NIH-3T3 cell proliferation [2]: < 10 nM

B20: hBDI-5H1.12 (antibody, V domains shown)
VH: B19 VH
VL: B9 VL
hPDGF-BB IC50 (nM), hPDGF-BB-induced NIH-3T3 cell proliferation [2]: < 10 nM
